The text below walks through data of paper PMC10246530.

Series [1] concerns the target T1, SARS-CoV-2 nucleocapsid NTD (WT) (SARS-CoV-2 (reference genome …, UniProt P0DTC9 44-180)). The series can be described thus: EMSA; 1 mM Mg2+, yeast tRNA; apparent. The note with it: protein: recombinant, tags: cleaved tag, one artificial N-terminal Gly left, label: 5'-32P in EMSA. In general terms: A gel shift assay detects complexes by their altered migration in electrophoresis.

The target in series [2] is T1, SARS-CoV-2 nucleocapsid NTD (WT). The series can be described thus: NMR; SL4ext-like; stability confirmed by aSEC. Conditions: protein: recombinant, tags: cleaved tag, one artificial N-terminal Gly left. (SEC sorts molecules by how far they enter the pores of the column.)
Series [3] has the same target. As to the kind of experiment: ITC; low-salt. Conditions: protein: recombinant; tags: cleaved tag; one artificial N-terminal Gly left; hairpin with 3' ss extension. For orientation: Isothermal titration calorimetry measures the heat released or taken up as one component is titrated into another.
For series [4] the target is unchanged. The series can be described thus: NMR; SL4ext-like. The note with it: protein: recombinant; tags: cleaved tag; one artificial N-terminal Gly left.
Series [5] shares this target. As to the kind of experiment: EMSA. Conditions: protein: recombinant; tags: cleaved tag; one artificial N-terminal Gly left; label: 5'-32P in EMSA; branched stem-loops.
The target of series [6] is T2, SARS-CoV-2 nucleocapsid NTD (WT) (SARS-CoV-2 (reference genome …, UniProt P0DTC9 44-180)). As to the kind of experiment: ITC; low-salt; NTD titrated to RNA. Conditions: protein: recombinant; tags: cleaved tag; one artificial N-terminal Gly left; label: 5'-32P in EMSA; hairpin.
Series [7] concerns the target T2, SARS-CoV-2 nucleocapsid NTD (WT). As to the kind of experiment: ITC. The note with it: protein: recombinant; tags: cleaved tag; one artificial N-terminal Gly left; label: 5'-32P in EMSA; hairpin.
Series [8] deals with T1, SARS-CoV-2 nucleocapsid NTD (WT). The series can be described thus: NMR; intermediate exchange. Conditions: protein: recombinant; tags: cleaved tag; one artificial N-terminal Gly left; labile hairpin, Tm 36.5 C.

What is called Kd is the free concentration of one partner at which half of the binding sites on the other are occupied at equilibrium, for simple one-to-one binding.

B1: SL4ext (SL4_extSL4) (structured_RNA)
RNA: GGUCUGUGUGGCUGUCACUCGGCUGCAUGCUUAGUGCACUCACGCAGUAUAAUUAAUAACUAAUUACUG
In the case of B1, the “apparent K (half saturation)” value in series [1] (15N-U/G for RNA-observed NMR, hairpin with 3' labile extension) is around 5 µM.

Consider GCCUAAUCUUUACAAAAUGCAAAGA (structured_RNA) [P3_B], for which the binding result in series [2] (labile hairpin) is reported as “binds”.

Take GGCUUUCGAUCUCUUGUAGAUCUGUUCUCUAAACGAACUUUAA (structured_RNA) [SL2+3]: in series [1] (two stem-loops), the “apparent K (half saturation)” value is around 10 µM.

With GGUUUAUACCUUCCCAGGUAACAAACCAACCAACUUUC (structured_RNA) [SL1_extSL1], the Kd in series [3] was determined as 87 µM.

GCGUGGCAACCGGGUGUUGCUAUGCCUAAUCUUUACAAAAUGCAAAGA (structured_RNA) [P3]: the binding result in series [2] (tandem stem-loops) is “binds”.

For the molecule GGAUGAAGAUUUUCAAGAAAACUGGAACACUAA (structured_RNA) [P2], in series [4], the binding result was “binds”.

B2: SL5 (structured_RNA)
RNA: GGUCGUUGACAGGACACGAGUAACUCGUCUAUCUUCUGCAGGCUGCUUACGGUUUCGUCCGUGUUGCAGCCGAUCAUCAGCACAUCUAGGUUUCGUCCGGGUGUGACCGAAAGGUAAGAUGGAGAGCCUUGUCCCUGGUUUCAACGAGAA
As for B2, the binding result in series [5] was “binds”.

For the molecule GGGUGUGGCUGUCACUCGGCUGCAUGCUUAGUGCACUCACGCCC (structured_RNA) [SL4], the results for the Kd in series [6] and in series [7] were 64 µM and 53 µM, respectively.

For GGAUAAUUAAUAACUAAUUACU (ssRNA) [Ext], in series [8], the binding result is recorded as “binds”.
